From paper PMC13043812

B1: unnamed (parent)
chain 1: MVTHELLVKAAGAVLTGLVGVSAYETLRKALGTAPIRRASVTVMEWGLRGTRRAEAAAESARLTVADVVAEARGRIGEEAPLPAGARVDE
chain 2: MTTVVDAEVQLTVVSDAAGRMRVQATGFQFDAGRAVAIEDTVGKVAGVQAVHAYPRTASIVIWYSRAICDTAAILSAIIDAETVPA

Variants of: B1
Settings: with partner chain of the complex shown; in M. smegmatis; parent: 100; read off a plot

Variant | response
chain 1 E59A | 0.31 % GFP+ cells
chain 1 E59A E71A | 0.015 % GFP+ cells
chain 1 E71A | 8.5 % GFP+ cells
